The results in this text go back to US20090253622A1, “USE OF TLR3 AGONISTS FOR THE TREATMENT OF NEURODEGENERATIVE DISORDERS” (Nederlandse Organisatie voor toegepast - …, priority 2006, published 2009).

The subject of series [1] is TLR3. The series can be described thus: TLR expression in cultured adult human astrocytes by real-time PCR. The format is cell-based. Here is the method:
Adult human astrocytes from post-mortem subcortical white matter samples were isolated and cultured as previously described (Bsibsi et al., J Neuropath Exp Neurol 61:1013-1021 [2002]). As determined by specific staining for cellular markers for astrocytes (glial fibrillary acidic protein; GFAP) and microglia (CD68) astrocyte cultures were essentially homogeneous; as a rule all cells expressed GFAP and none of them expressed CD68. When indicated astrocytes were stimulated with 50 μg/mL poly I:C (Amersham Pharmacia Biotech, Piscataway, N.J.) or 200 ng/mL LPS (Sigma-Aldrich, Steinheim, Germany) to activate TLR3 and TLR4, respectively. These doses were selected on the basis of maximum effects in astrocytes. It should be noted that contaminants in the commercial LPS preparation could possibly lead to some level of TLR2 activation in addition to TLR4 by the LPS preparation used but not of TLR3. When stimulated with cytokines, astrocytes were supplied with TNF-α, IFN-γ, IL-1β (each at 500 U/mL), IL-4 (at 250 U/mL), IL-6 (at 200 U/mL), IL-12 (at 50 ng/mL), IL-10 (at 20 ng/mL) and TGF-β (at 12.5 ng/mL) (PeproTech, Rocky Hill, N.Y.). Control cDNA array profiling experiments included treatment with 50 μg/mL cycloheximide for 30 min prior to and during poly I:C treatment, or with 200 U/mL IFNβ (Avonex). Endothelial cells (UVEC) were isolated from umbillical cords and cultured on gelatin-coated dishes in M199 supplemented with 20 nM HEPES, 10% human serum, 10% heat-inactivated NBCS, 150 mg/mL ECGF, 5 U/mL heparin, 100 IU/mL penicillin and […] streptomycin. Total cellular RNA was isolated using RNA-Bee™ as previously described (Bsibsi et al., [2002] supra). Subsequently, RNA was reverse transcribed into cDNA and levels of TLR1-10 and β-actin as a reference were determined by quantitative real-time PCR. The following fluorogenic molecular beacons and primers (Biolegio, Nijmegen, The Netherlands) were used: The β-actin beacon contained 5′ fluorescein VIC, and the 3′ quencher Dabcyl. […] Data were analyzed using sequence detector version 1.7 software.
A general note: In qPCR the cycle at which signal appears reflects the starting amount.

The target in series [2] is human Toll-like receptor 3 (human) (UniProt O15455). Put plainly: cell-based or functional assay.
Series [3] can be described thus: Circular dichroism spectroscopy, helical content. The note with it: pre-treated 1 h at 37° C., dialysed 48 h against PBS. The class given is physicochemical. The procedure: Purified recombinant stathmin was exposed to two different conditions that differentially affect the extent of helix formation within the protein chain. One part of the protein preparation was exposed to 5% trifluoroacetic acid (TFA) in water for 1 h at 37° C., strongly acidic conditions that tend to disrupt an alpha helix. […] […] Next, the samples were analyzed by […] circular dichroism spectroscopy that allows calculation of helical content on the basis of elipticity in the absorption of circularly polarized light. In both cases, another part of the dialyzed sample was tested in parallel for induction of TLR3-mediated release of CXCL8 (IL-8) in human astrocytes as described elsewhere in this application.
Background: Circular dichroism is the unequal absorption of left and right circularly polarised light.

Series [4] concerns TLR3. Put plainly: CXCL8 release by cultured human astrocytes (ELISA). The class given is cell-based. Conditions: on weight basis. The procedure: Cos-7 cells (25,000 cells per well in 96-well plates) were transfected for 5 h with 768 pools of cDNA derived from human brain tumours (5 pooled tumours including meningioma, oligodendroglioma, astrocytoma grades II and IV, and medulloblastoma; NCI CGAP Brn35; Invitrogen) using lipofectamine, after which cells were thoroughly washed. Transfection with green-fluorescent protein-encoding cDNA was used as an internal control for transfection efficiencies. After continued culture of the transfected cells for 48 h, 75 μL of each culture supernatant was harvested and added to cultured human astrocytes seeded at 1,000 cells per well in 75 μL. After 48 h of culture, supernatants were harvested and evaluated for CXCL8 release using ELISA. Stimulation of astrocytes with poly I:C served as positive controls for CXCL8 release in all cases, non-transfected Cos 7 culture supernatants as negative controls.
Purified recombinant stathmin was exposed to two different conditions that differentially affect the extent of helix formation within the protein chain. One part of the protein preparation was exposed to 5% trifluoroacetic acid (TFA) in water for 1 h at 37° C., strongly acidic conditions that tend to disrupt an alpha helix. In parallel, another part was exposed for 1 h at 37° C. to 5% of the helix-promoting solvent trifluoroethanol (TFE) in phosphate-buffered saline (PBS). After exposure to these different conditions, both protein samples were extensively dialysed for 48 h against several changes of PBS. Next, the samples were analyzed by […] circular dichroism spectroscopy that allows calculation of helical content on the basis of elipticity in the absorption of circularly polarized light. In both cases, another part of the dialyzed sample was tested in parallel for induction of TLR3-mediated release of CXCL8 (IL-8) in human astrocytes as described elsewhere in this application.
(An ELISA detects its analyte on a solid surface through an enzyme-linked reagent.)

“TGF-β: anti-inflammatory cytokine, 12.5 ng/mL”: the “induction of TLR3 expression (in words)” value in series [1] is listed as “No induction of TLR3”. Still for that read-out and setting: as for `OO` [H2O2], the entry is “selective induction of TLR3”. With “recombinant human stathmin (from UniProt P16949 1-149) (ligand)”, in series [2], the Pearson correlation coefficient (r) between gene expression profiles (268 genes) of human astrocytes stimulated with 50 µg/ml stathmin or 50 µg/ml poly I:C stood at 0.951 and the TLR3-mediated release of CXCL8 (IL-8) in human astrocytes: TFE-treated stathmin (37% alpha helix) against TFA-treated stathmin (12% alpha helix) was determined as 3 fold.

B1: IL-10: anti-inflammatory cytokine, 20 ng/mL (protein, UniProt P22301 19-178, looked up)
Interleukin-10: SPGQGTQSENSCTHFPGNLPNMLRDLRDAFSRVKTFFQMKDQLDNLLLKESLLEDFKGYLGCQALSEMIQFYLEEVMPQAENQDPDIKAHVNSLGENLKTLRLRLRRCHRFLPCENKSKAVEQVKNAFNKLQEKGIYKAMSEFDIFINYIEAYMTMKIRN
B1: the “induction of TLR3 expression (in words)” value in series [1] is on record as “No induction of TLR3”.

B2: TFA-treated sample: purified recombinant stathmin exposed to 5% TFA in water for 1 h at 37° C. and dialysed against PBS (protein, UniProt P16949 2-149, looked up)
Stathmin: ASSDIQVKELEKRASGQAFELILSPRSKESVPEFPLSPPKKKDLSLEEIQKKLEAAEERRKSHEAEVLKQLAEKREHEKEVLQKAIEENNNFSKMAEEKLTHKMEANKENREAQMAAKLERLREKDKHIEEVRKNKESKDPADETEAD
modifications: TFA-treated
notes: purified recombinant stathmin exposed to 5% TFA in water for 1 h at 37° C. and dialysed against PBS
Consider B2, for which, in series [3], the alpha helical content was 12%.

B3: TFE-treated sample: purified recombinant stathmin exposed to 5% TFE in PBS for 1 h at 37° C. and dialysed against PBS (protein, UniProt P16949 2-149, looked up)
Stathmin: ASSDIQVKELEKRASGQAFELILSPRSKESVPEFPLSPPKKKDLSLEEIQKKLEAAEERRKSHEAEVLKQLAEKREHEKEVLQKAIEENNNFSKMAEEKLTHKMEANKENREAQMAAKLERLREKDKHIEEVRKNKESKDPADETEAD
modifications: TFE-treated
notes: purified recombinant stathmin exposed to 5% TFE in PBS for 1 h at 37° C. and dialysed against PBS
Regarding B3, the “activity in activating astrocytes (CXCL8/IL-8 release), TFE-treated relative to TFA-treated sample” value in series [4] is “about 3 fold”. In addition, in series [3], the alpha helical content is given as 37%.
